According to article PMC6917645:

Target: Viperin-Flag (UniProt Q8WXG1)
Sequence of UniProt Q8WXG1 (Q8WXG1 whole entry): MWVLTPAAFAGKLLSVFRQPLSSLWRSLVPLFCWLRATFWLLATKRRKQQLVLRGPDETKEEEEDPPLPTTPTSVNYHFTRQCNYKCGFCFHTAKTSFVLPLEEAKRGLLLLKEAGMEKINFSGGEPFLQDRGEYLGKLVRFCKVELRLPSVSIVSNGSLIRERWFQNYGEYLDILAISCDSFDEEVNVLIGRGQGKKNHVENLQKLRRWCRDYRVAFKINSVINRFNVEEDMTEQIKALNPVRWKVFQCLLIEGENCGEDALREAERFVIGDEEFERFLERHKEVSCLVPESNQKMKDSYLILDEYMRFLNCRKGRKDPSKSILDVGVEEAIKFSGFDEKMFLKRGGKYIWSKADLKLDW

With “gD-EYFP (from UniProt Q69091 26-394) (natural protein)” the IRF7/6D-induced IFN-β promoter luciferase activity in HEK293T; gD-EYFP and Viperin-Flag together against gD or viperin alone was 2 fold.
